Earlier results, collected in PMC12390062.

Tests used:
[1] = target: nicotinic acetylcholine receptor α7 (Gallus gallus) (UniProt P22770)
[2] = target: nicotinic acetylcholine receptor α-γ interface α-γ interface (Mus musculus) (UniProt P04756)
[3] = target: nicotinic acetylcholine receptor α-δ interface α-δ interface (Mus musculus) (UniProt P04756)

Substance | Kd [1] | Kd [2] | Kd [3]
wNTX5 (Group 3b (ii) toxin) (from UniProt O42255) | 90 µM |  | 
α-conotoxin MI (from UniProt P01521) |  | 20 µM | 0.00062 µM
